Source: patent US20230057177A1 (CULLGEN SHANGHAI, published 2023)

B1: Peptide 1 (SEQ ID NO: 1) (peptide)
peptide: ILPKVLHKRTLGLS
notes: No terminal modifications are stated for the tested peptide

Each binder was assayed against T1, His-DDB1 (human DNA damage-binding protein 1 with N-terminal His6-tag) (human, UniProt Q16531 1-1140) (assay: SPR (Biacore), His-DDB1 amine-coupled on CM5 chip, steady state affinity fit; graded cell, table key: A: Kd < 20 uM).
T1 construct: Vector-derived residues between the His6-tag and DDB1 (pFastBacHTB) are not described; also called His-DDB1 proteins
T1 sequence (Q16531 other isoform, or with tags, fused parts or gaps limits assumed): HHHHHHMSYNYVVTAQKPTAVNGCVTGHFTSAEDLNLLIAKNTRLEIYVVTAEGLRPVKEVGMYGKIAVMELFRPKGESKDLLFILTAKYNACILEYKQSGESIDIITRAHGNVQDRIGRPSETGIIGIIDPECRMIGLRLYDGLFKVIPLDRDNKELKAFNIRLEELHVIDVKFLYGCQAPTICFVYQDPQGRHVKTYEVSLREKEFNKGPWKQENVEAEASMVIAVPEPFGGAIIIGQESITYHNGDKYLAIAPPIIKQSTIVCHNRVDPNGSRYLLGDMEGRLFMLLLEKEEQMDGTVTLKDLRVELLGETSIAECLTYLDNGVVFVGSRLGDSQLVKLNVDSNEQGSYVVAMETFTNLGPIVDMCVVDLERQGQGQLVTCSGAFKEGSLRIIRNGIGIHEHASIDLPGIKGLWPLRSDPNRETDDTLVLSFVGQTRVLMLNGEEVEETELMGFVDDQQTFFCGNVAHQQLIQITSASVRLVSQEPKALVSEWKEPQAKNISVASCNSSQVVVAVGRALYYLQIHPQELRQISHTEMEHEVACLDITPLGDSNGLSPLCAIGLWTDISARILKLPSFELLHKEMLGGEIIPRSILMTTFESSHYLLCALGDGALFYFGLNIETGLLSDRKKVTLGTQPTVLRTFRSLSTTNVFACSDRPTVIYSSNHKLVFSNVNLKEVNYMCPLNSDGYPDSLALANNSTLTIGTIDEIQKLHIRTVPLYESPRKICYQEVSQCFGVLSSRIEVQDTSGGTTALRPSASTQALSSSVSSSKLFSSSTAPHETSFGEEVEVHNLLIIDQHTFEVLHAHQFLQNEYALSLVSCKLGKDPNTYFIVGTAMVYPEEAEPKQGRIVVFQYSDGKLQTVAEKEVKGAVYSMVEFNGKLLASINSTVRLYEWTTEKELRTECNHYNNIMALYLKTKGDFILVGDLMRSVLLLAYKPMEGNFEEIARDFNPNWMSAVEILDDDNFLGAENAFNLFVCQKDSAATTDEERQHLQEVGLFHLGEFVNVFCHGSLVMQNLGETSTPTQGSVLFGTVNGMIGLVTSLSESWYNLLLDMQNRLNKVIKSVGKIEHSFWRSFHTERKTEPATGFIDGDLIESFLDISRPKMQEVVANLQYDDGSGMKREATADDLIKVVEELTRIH

Row | Binder | Kd [µM]
1 | ILPKVWHKRELGLS [Peptide 2 (SEQ ID NO: 2)] | < 20
2 | KVLHKRTLG [Peptide 5 (SEQ ID NO: 5)] | < 20
3 | B1 | < 20
4 | ILPKVLHKRTLGL [Peptide 3 (SEQ ID NO: 3)] | < 20
5 | ILPKVLHKRTFGL [Peptide 4 (SEQ ID NO: 4)] | < 20
6 | NFTSRLNRRASFP [Peptide 6 (SEQ ID NO: 6)] | < 20

The binders below were run against T1, His-DDB1 (human DNA damage-binding …) (assay: SPR (Biacore), His-DDB1 amine-coupled on CM5 chip, steady state affinity fit; graded cell, table key: B: Kd 20-100 uM (lower end of the range)).

Row | Binder | Kd [µM]
7 | SRLNRRASF [Peptide 7 (SEQ ID NO: 7)] | 20 to 100
